The target of this assay is T1, HY5-S36A-GFP (Arabidopsis thaliana, UniProt O24646 1-168, S36A).
T1 sequence (looked up): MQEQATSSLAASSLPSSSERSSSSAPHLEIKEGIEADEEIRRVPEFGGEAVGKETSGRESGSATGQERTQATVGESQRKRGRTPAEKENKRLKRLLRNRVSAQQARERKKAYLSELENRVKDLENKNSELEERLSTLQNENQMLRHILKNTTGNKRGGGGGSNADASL
Briefly: co-IP.

The values below come from article PMC8641065 (The New phytologist, 2021).

B1: COP1 (constitutive photomorphogenic1), endogenous (natural protein, UniProt P43254 1-675, looked up)
chain: MEEISTDPVVPAVKPDPRTSSVGEGANRHENDDGGSGGSEIGAPDLDKDLLCPICMQIIKDAFLTACGHSFCYMCIITHLRNKSDCPCCSQHLTNNQLYPNFLLDKLLKKTSARHVSKTASPLDQFREALQRGCDVSIKEVDNLLTLLAERKRKMEQEEAERNMQILLDFLHCLRKQKVDELNEVQTDLQYIKEDINAVERHRIDLYRARDRYSVKLRMLGDDPSTRNAWPHEKNQIGFNSNSLSIRGGNFVGNYQNKKVEGKAQGSSHGLPKKDALSGSDSQSLNQSTVSMARKKRIHAQFNDLQECYLQKRRQLADQPNSKQENDKSVVRREGYSNGLADFQSVLTTFTRYSRLRVIAEIRHGDIFHSANIVSSIEFDRDDELFATAGVSRCIKVFDFSSVVNEPADMQCPIVEMSTRSKLSCLSWNKHEKNHIASSDYEGIVTVWDVTTRQSLMEYEEHEKRAWSVDFSRTEPSMLVSGSDDCKVKVWCTRQEASVINIDMKANICCVKYNPGSSNYIAVGSADHHIHYYDLRNISQPLHVFSGHKKAVSYVKFLSNNELASASTDSTLRLWDVKDNLPVRTFRGHTNEKNFVGLTVNSEYLACGSETNEVYVYHKEITRPVTSHRFGSPDMDDAEEEAGSYFISAVCWKSDSPTMLTANSQGTIKVLVLAA
For B1, the “fold of COP1 co-immunoprecipitated, against the HY5-S36D-GFP line” value is 4 fold.
